In the domain aggregation screens of Martell et al. (2025):

Experiment: soluble fraction after stress (log2 fold change); higher = more stays soluble; pooled small domains, quantitative proteomics
Conditions: stress: 50 degC
In short: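 Pooled custom libraries of small protein domains were measured in a high-throughput format, with quantitative proteomics as the read-out. Each library was stressed at 50°C. Aggregation propensity is given as the base-two logarithm of the fold change in how much of each protein stays soluble after the stress. Higher values mean a larger share of the protein remains in solution.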

Row | Sequence | soluble fraction (log2)
1 | HMKTAAKVLGESGGKPVTVQSGRYGPYVQLGTIRATLPKDLDQEAVTLDKALELIDAKAERSGK | 0.172
2 | HMGFAANLSRLMEYHNISMYRLAKEVGVHQTTVKNWLEEESEPKIAALEKIVGLLGVSYDELLG | -4.56
3 | HMDWNPVRDITAHQVLAILQATHIRAPTVAAEAKRTLSSIFQFAVATLRADIDPVWPVRNALPKNKT | 0.00605
4 | HMDNITIYSSNGKIYVNAIGGEKIELFNITGQKVAEKVAVSGINVLDAVYDITLVKVGSKVVKVV | -0.123
5 | HMPPSQRVNRILSLAGITSRRKADEYILEGRVTVNGEVLKEPGAKAVWGTDDIRVDGKPIPALS | 0.1
6 | HMNNGYSINEIAKLMKMTLKVVRRYVASGELKTTKTNNTYSISEEAFNEFKKYIEEGGDAKHAQEVADTFK | -0.229
7 | HMKSVLDDVAGLGPVRKKALLKAMGGFTRLRAASLDDILAVRAVPEEVAREVFAVLAQYNSVRNNDISE | -0.273
8 | HMEHQLLHMEKTIFEEIADDYPQLNHTKIRNVLAAFLFTNDDVFKRIADLSGGERGRVSLAKLMLSDA | -0.188
9 | HMAPNDELTRQVISVLSGTPQQAFNYKQISKKLNINDSSERRMVSNILRELAGKGEIVEVYQGKYRSKAPA | 0.0588
10 | HMNETSRTRALNILGLKATATQEDIKKAYRSLAKEYHPDKLVGVSEGVKKISEEKFREINEAYEYLI | 0.384
11 | HMSEEAMVSNFRQQEILELARKDGKVTVDGLAELYDVTVQTIRRDLSDLADSGRLKRVHGGAVVPS | 0.262
12 | HMLTRQNFHGIKLPTIHEYIDLLNSRVNANIDKTNNWQSSVSHLRTYLNSHNINAVSKESINNYIDERLN | -0.572
13 | HMKEIIFRGIGEFILDYKSLVIEFLNKNNYANLSMDAPVDEVNKAVANNMLNEDFVTELLLFQRRVE | -1.2
14 | HMLHIKKGDTVIVNAGESKGQQGKVLEVLVGKERAIVEGVNMVSKHTKPNAKNPQGGIVKKEAPIHISNLQ | 0.179
15 | HMSSVDLLSERERQVLARISRGMSNEEIAAELAITPRTVRNHLANIYGKIDVHSRAEAVVWARERGIT | 0.0251
16 | HMVITPESVKEQVLAIISKSPAQGFNYKQISKRLNINDPSERKMVSDILRELSESGTIEEINKGKYRAKV | -0.0556
17 | HMRRPRGVFNLVPRGFKRFGFITPDGGGEDMFAHLENVRAGHVVEDRNAVEYGIGRGPDGRDQAVDIVPVP | 0.049
18 | HMSTDKIDIVSSAILSSLKDNDGFIGLTDKSPPPEIYTAFRVSKKVFKQAIGALYKQRRITLESSGIRLIS | -0.193
19 | HMQYRQRRGLERMELILDAATRVVAEVGYERTTTNAIATRAGISPGSLYQYFSSKEDIASALWERYAE | -0.23
20 | HMELDREALSDGLRRLSQLLAEDDIESRTLFRELAPGLKEQLGDDAVEKLAGHISRYEFEQAGALLATSG | -0.0341
21 | HMRIETLESLANRLAYKAYRTGRKVELEPMNPFERRVIHTALQNSKYATTESEGEDMNRHIVIVPKEGG | -0.0606
22 | HMDTQITPNKAKEIALAHAGVTEAAANFKKIKLDNKNGKSIYEIEFIANKSRYEFIVDAKNGSIIKFEK | 0.0656
23 | HMDREIVEAIVPLEAAGKRFDAALAEMFPEFSRSRLTEWIKAGDALLAGEIVKPKVSVRGGEAVSLSIRV | -0.485
24 | HMQSYSYYDFQKALQNKTVESVIIEPDKTVPTGTLQIQLKGDTKEELNVSDVTEVEELLQSYDVDYKLRSV | 0.131
25 | HMSYPTAVTQTTLNVRTGPGTQYERLGAFVENTEVIVLTRQPEWIQVRGMSGDKAIIGWVSARYLQMNP | -0.457

Row | Sequence | soluble fraction (log2)
26 | HMGGRSARVRRAVLDAVVELLGEGGVRAVTIAEVAKRSGVNASSIYRRWRSIDALILDAAQDL | -1.81
27 | HMNKNIKIPNISNLSREDAESVLKESGISVSTEIKEVESDTIEKGKVVKTEPSIGSTVKQGRTITIYISSG | 0.0574
28 | HMSLNQRIKEARIKMGYTQEQLGNLIGVAKTTISGYEKNREPDAATIGLIIDALKVDANFLFQ | -1.62
29 | HMAAEIGSGVVDAYDLRLRSQPSTDAETIIYLDNGAKLSVQEDLGDWYKVVSGTYTGYVSAEYVAYTPSPE | -1.13
30 | HMGSTDTLEDALEAAEKISYPVIIKATAGGGGRGMKVASSLEELKKVYHTTKLEAKNAFGNDQVYIEKYL | 0.116
31 | HMAMLSKREAEILKLTAKGHSSTDIAQRLTISVNTVEFHRRRIMQKLNAANVAEAVGKAAELGLFF | -0.438
32 | HMGLNLIGLKRSGFAPEEVKAMTRAYMYIFKSAEGNFESRLAKAHEKYKDDALIMEMVEFIDDALKG | -0.906
33 | HMFEQFEVENLQELQQEWGDKFNHNLEMARRAFMNFATPEAVKVLEETGMGNHPELLKVFARIGEVLAED | -0.536
34 | HMENDYTQAQFVQDLDSGVVREVIIIPNREAPTGYARVVFGDVVRELYATDIREVEALAREHGYEPTVED | 0.209
35 | HMTVDHDERRSMILEAFMRLAAREGLHAVSLRGVAAEAGISLRLVQYYFETKARLMQSGLTALET | -0.281
36 | HMAIPEVDPAKQGVSATQLAALDALAHRNAGEGRVAGMVNVVIRNGEIVYYKATGPRHIDGGAPLKSTDLF | -0.153
37 | HMTQPAEINRLVEQMGSSDYKSRQEAYERLHQMGPGILDLIYPYRNHADPEIQTRVRELILSYRW | 0.264
38 | HMSIASASVKEKIRDIVSSEPPQKPFSDAKIAEILAEDGIAIARRTVAKYREEIGIPTKSLRKR | 0.0195
39 | HMNLLPAGTYKLKDLVTAEDEEIGAKKGDVVIAHEDTPPSDRVLGVDIFPVIHKNTSKKIYVSLEDI | 0.46
40 | HMVLAEPLSERELDILRLLAAGDSNKEIAAVLYITEGTVKNHVTNILGKLDARDRTQAALRARELGL | -0.801
41 | HMKIKAKYTTDFGIRIYAPKPGKNYWRISYVDLDGKLRDTTATSEKTALDKSAEIEVLLRNN | -1.89
42 | HMQSREISYSEFVTAVEAGDVRNVTLDGEQVRFRRADGSDYVTIRPEDAEVTKLLMANDIPVRAEP | 0.169
43 | HMNVEALIGREGRVTDKIEANGYGRVKVDGDSWKAKSANGAEIRQNTDVRILSIDSVIITVEP | -0.379
44 | HMGPEQLIGKTGIAASELAPRGEVKIEGQIWRAETVGDHVKQGEPVEVVSREGLILRVKPKHPQTRG | 0.214
45 | HMDPAFAQHHDRALSILHSRGYEVHDSDTDLHWARPVLEFEAYKGSLEYKIVMSYPDLNIIEERVD | -1.06
46 | HMADQVVGQLGMVTQRIDNLQQTGRVSANGLDWAARSENGQPIPQGMPVEVLRIEGVKLIVRPVN | -0.0238
47 | HMSSARKVTVRGVRELPGIFMEKAEILDDGVRFFYRGEMEKLIGALQGLPIRDLTITEPDLEEVFLHFY | -1.09
48 | HMLVSFGDHLKRYIYERAGIEEPFGEVPQEIYRDIAVDSFRETYTPKSMNPTSTKLPALVNNWLIQ | -0.746
49 | HMGTPEQSAQFEQVLEELKNVPGPVMKAMQRAQDIYGYLPIEIQSRIGQAFGVSLEEVYGIATFYSQFNL | -1.68
50 | HMTPTPQQNNILVGQTGTTLTRLAPMGKVRVGEVTAEAKTIDGYINPRQSVEVIGFENTVVIVRAV | 0.144

Row | Sequence | soluble fraction (log2)
51 | HMITTEEVLNRIRKKVDHPATIRELQKALSIADDDRHRFRRRIRTLVASGALVRIRGNRYGLPSK | -0.275
52 | HMESIGANIRRLRKERNMSQDELARKAFTNRSNINRYESGKMVPSADTTEKIEEALGVPAGTLAQ | 0.132
53 | HMEVPTGNHIRRWRKSLDITQVKLSSLSGVAQSIIAKIENETVDPRVSTLRKLVEALSRFENP | -1.89
54 | HMLELDRTNLLGVFGSKSNPYALIMLSNGEMLKLSIGDQFLGWRVYAIDQTTVHVQNGKNQEILRIP | -1.13
55 | HMSQDLVVLGDSMLNNALKAFHIDPNAIKKKYWDKLILDYHLKSKEEVLTEIALGKKINVMVAHQLTSIMD | -0.0721
56 | HMGDSEMPVSEVVRLAKLDQISSIEISGTKLTIITNNLETYTSRIEENSTIIEILQRAGVDIGGLEIYPHG | -0.492
57 | HMAEVTLTVREQEVLHLLARGMSNGEMAAHLYVEPTTIKYHLTGLLQKTGSRDRLQAVLWGIRAGMVH | -2.18
58 | HMPMTLGENIARLRTQKDWSQGDLADALGISRQSISKWETDTSIPELEKLIKLSELFGVTLDQLVRGE | -0.193
59 | HMGRAAEETETFRTQGELDARIKELQGQMRDAAANLEFERAAGLRDTLKRLRTRGLGLSASP | 0.0346
60 | HMTIFGWQQDETGKWYRNADGTFYENGWKEIDGAQYYFDENGYVTTGWLELDGKDYYFDEEGKYDSTKVR | -0.46
61 | HMEMSLGEKLKQARLTKNFSQEYMAEVLQISQKTYSNFENNKTKPDFSQIEEISKVLETSILEFLT | -0.152
62 | HMTPILTAQQVVAALQAAGYRNVHDLEFEHGRWEADAVNAAGQRVELHINPYTGAIERERLD | ≥ 0.62
63 | HMQKTPFEIMTIYKDQILEMLGKDLTATEISIVLKKKGEKVHPREIRKFQLQHYEEVQDMRKKWRE | -1.16
64 | HMSNIAQRLVLENALAKLNQEQQTIIDLRIIKGYSVAETARLLGKTESAVRTAQYRALKELAGILEED | -0.86
65 | HMKTTSYAKLLRFLRTERDLSQITVAKQLGLSRASYLALEHGSRELSLSEAVKVTTLYGIRIDDLIVNH | -3.48
66 | HMARLEELSNGSIVEGLLSGEAVTVVSTKWYGSSSMEVFYKTNRGSTGSQILYREDEPSLTVLEKS | -0.32
67 | HMAAAKDVMDWQNAIRGLTDAKGKPYSPTYLKTVHNQLSALFNHAVRYYGLQVNPAAKAGNMGVEE | -0.0939
68 | HMLDRNKLNELDAYIESFEDKPSHLIMILHRAQGLFGYLPKELQIYVAEKTGVPAAKVYGVVTFYSFFTMK | -1.4
69 | HMLAHSEFGARLRETRKRLGLSQSELGGDRYSGSYISHLESGRRAASAEVIEFLAGRLGVEVEELGM | -0.171
70 | HMIAANMTISQRIAAALAEYGVMSVKDIAQEVLGATDKKDTEKIRVTLTRDHGKRFRTYSDGTWSLKDWRP | -1.12
71 | HMPDPLVEIRSAVHSNYAGMIAMLGADNRVYLGREEHYSYQDGQPGQYDNRDGSLLFVSDQPDIYYFL | -1.44
72 | HMKKYEFIEDLPGVGPATAQKLRDLGYHTVESLAMATARELEPIGVGEKKAFSMIEAARSAIGFS | 0.283
73 | HMRSDSEIKEDVLDELMWQPNIDETQIGVIVEKGVVTLTGFVDAYAKKTAALDAVKNVKGVKAVANDIEV | 0.131
74 | HMLAKNDSGLNNHTFNAIRDALLEALADGPAEAKKLTENISFPSDKIITVIRFLADHDDRFSLEDGILSLT | -0.515
75 | HMDLVIALNSRIRVIREPFFGKLGTVIDLPHKLHKMESGTMTRVAKIKFDDRTEEIIPRTNLEVILS | -2.69
